Consider two molecules from PMC10284691 (2023).

By Kd is commonly meant the constant that tells how readily two partners part at equilibrium. Low values mean a tighter complex, high ones a looser complex. Usually Ki stands for a dissociation constant, usually derived from enzyme kinetics or from competition with a known ligand. Lower therefore signals a stronger hold on the target. Usually koff stands for the rate constant with which the complex falls apart. Low readings indicate slow dissociation, high ones fast dissociation.

Where two headings read alike, the source gives them in different places.

Assay [1] deals with T1, BPH14–LRR (purified from insect cells) (rice (Oryza sativa), line RI35 carrying …, biotin (NHS-biotin) in the BLI assays; RED-NHS 2nd Generation dye in the MST assays).
T1 chain: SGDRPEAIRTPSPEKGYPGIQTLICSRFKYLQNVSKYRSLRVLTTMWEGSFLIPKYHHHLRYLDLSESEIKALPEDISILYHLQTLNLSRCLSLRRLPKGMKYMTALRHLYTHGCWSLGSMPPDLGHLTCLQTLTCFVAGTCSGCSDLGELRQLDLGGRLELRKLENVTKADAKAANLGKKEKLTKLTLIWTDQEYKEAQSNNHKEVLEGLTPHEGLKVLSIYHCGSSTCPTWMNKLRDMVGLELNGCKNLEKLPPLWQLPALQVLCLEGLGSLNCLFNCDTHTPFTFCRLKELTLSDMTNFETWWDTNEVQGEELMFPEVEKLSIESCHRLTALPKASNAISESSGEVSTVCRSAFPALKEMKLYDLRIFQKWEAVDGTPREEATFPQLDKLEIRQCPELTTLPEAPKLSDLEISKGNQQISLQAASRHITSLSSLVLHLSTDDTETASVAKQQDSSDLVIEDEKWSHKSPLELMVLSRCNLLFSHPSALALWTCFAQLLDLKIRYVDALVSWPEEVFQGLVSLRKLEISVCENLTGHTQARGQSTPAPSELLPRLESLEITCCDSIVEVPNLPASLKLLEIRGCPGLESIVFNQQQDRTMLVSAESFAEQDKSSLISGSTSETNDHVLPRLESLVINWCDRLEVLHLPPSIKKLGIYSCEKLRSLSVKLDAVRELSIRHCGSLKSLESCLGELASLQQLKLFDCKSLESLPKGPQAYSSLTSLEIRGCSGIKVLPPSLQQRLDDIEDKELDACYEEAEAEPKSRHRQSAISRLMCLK
The experiment in a line: MST.

Assay [2] has as its target T1, BPH14–LRR (purified from insect cells). The assay can be described thus: MST; competition with BISP(26–124) prebound to LRR.
The target is the same in assay [3]. The assay can be described thus: BLI.
Assay [4] has the same target. The assay can be described thus: BLI.

B1: BISP (purified from insect cells) (natural protein)
chain: SAMRYASGFQNNERQSSEQESYSRSAQSSEKSSSGYQMGEMASAGVGMSSGYGGSGYSSGGGYQQGVGYSGCDSDYSSGGIGGIVNTATGLASSVTGMAGGLGGGGGLADVGGVVNTVSGLADVGGLTNTVSGLADVGGVTNTVGGLVNGIAGGGAGGGLLGGVLGGGDGGCGGNCGGNCGGNCGGRGGGGGGLLGGILGGGSGGGRGARVSARVC
As for B1, the Kd in assay [1] was 9.72 nM. Also, affinity in assay [2] was put at a Ki of 98 nM. This molecule showed an off-rate (koff) in assay [3] of 0.000341 s⁻¹.

B2: BISP(26–124) (purified from insect cells) (domain or fragment)
chain: SAMRYASGFQNNERQSSEQESYSRSAQSSEKSSSGYQMGEMASAGVGMSSGYGGSGYSSGGGYQQGVGYSGCDSDYSSGGIGGIVNTATGLASSVTGMA
B2 had a dissociation constant (Kd) in assay [1] of 56.1 nM. Also, in assay [4], the koff was found to be 0.000719 s⁻¹.
